Laboratory results from patent US20210054094A1 (Hoffmann-La Roche, published 2021).

How the values were obtained:
[1] = molecular target: T1, human GPRC5A (human, UniProt Q8NFJ5 1-357); assay: cell ELISA on stably transfected CHO cells
T1 construct: whole, on cells; also called hu GPCR5A
Protocol: (§1) Stable transfected CHO clones expressing either human GPRC5D or cynomolgus GPRC5D or murin GPRC5D or human GPRC5A were used to analyze the binding of potential lead candidate antibodies as IgGs. In detail, 10⁴ cells (viability≥98%) were seeded into 384 well-microtiter plates (BD Poly D-Lysin, #356662, volume: 25 μl/well) using fresh culture medium. After overnight incubation at 37° C., 25 μl/well dilutions of antibodies were added (15×1:3 dilutions in 1×PBS, assay conc. starts at 30 μg/ml) to the cells for 2 hours at 4° C. After one washing step using 90 μl/well PBST (10×PBS, Roche, #11666789001+0.1% Tween 20), cells were subsequently fixed by the addition of 50 μl/well 0.05% glutharaldehyde (Sigma Cat. No: G5882 in 1×PBS) for 10 min at room temperature (RT). After three additional washing steps using 90 μl/well PBST, secondary antibodies were added for detection: for human antibodies goat anti-human Ig κ chain antibody HRP conjugate (Millipore #AP502P) diluted 1:2000 in blocking buffer (1×PBS (Roche #11666789001)+2% BSA (Bovine Serum Albumin Fraction V, fatty acid free, Roche, #10735086001)+0.05% Tween 20) was used (25 μl/well). […] After incubation for 1 h at RT and three additional washing steps using 90 μl/well PBST, 25 μl/well TMB substrate was added (Roche order no. 11835033001) for 10 min and color development to final ODs was determined by measurement at 370 nm/492 nm.
(§2) Cynomolgus crossreactivity was also detected for all other antibodies but at lower levels compared to 10B10 and 07A04 (FIG. 9). No significant binding to CHO cells expressing murine GPRC5D and no binding to CHO cells expressing the human version of GPRC5A was detected (FIG. 9).

[2] = molecular target: T2, murine GPRC5D (murine, UniProt Q9JIL6 1-344); assay: cell ELISA on stably transfected CHO cells
T2 construct: whole, on cells; also called murin GPRC5D
T2 sequence (looked up): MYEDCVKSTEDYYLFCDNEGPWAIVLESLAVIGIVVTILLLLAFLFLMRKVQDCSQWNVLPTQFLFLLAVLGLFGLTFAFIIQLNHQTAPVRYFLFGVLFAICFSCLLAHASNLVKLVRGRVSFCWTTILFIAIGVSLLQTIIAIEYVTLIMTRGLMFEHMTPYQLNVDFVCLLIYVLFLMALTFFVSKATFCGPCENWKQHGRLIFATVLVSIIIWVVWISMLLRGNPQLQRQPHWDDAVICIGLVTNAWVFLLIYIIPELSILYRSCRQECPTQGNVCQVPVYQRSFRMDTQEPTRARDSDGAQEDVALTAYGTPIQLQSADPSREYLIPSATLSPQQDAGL
Protocol: as §1, §2

[3] = molecular target: T3, human GPRC5D (human, UniProt Q9NZD1 1-345); assay: cell-based or functional assay
[4] = molecular target: T3, human GPRC5D; assay: cell-based or functional assay; remark: listed apart in the source
[5] = molecular target: T4, B-cell maturation antigen (BCMA) (UniProt Q02223 1-184, limits assumed); assay: cell-based or functional assay
T4 sequence (looked up): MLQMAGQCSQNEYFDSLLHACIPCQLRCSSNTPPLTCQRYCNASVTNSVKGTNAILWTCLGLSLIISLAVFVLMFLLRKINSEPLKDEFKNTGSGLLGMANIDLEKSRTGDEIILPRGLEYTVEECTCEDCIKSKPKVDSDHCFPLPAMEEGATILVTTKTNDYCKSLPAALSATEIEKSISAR

T3 sequence (Q9NZD1 whole entry): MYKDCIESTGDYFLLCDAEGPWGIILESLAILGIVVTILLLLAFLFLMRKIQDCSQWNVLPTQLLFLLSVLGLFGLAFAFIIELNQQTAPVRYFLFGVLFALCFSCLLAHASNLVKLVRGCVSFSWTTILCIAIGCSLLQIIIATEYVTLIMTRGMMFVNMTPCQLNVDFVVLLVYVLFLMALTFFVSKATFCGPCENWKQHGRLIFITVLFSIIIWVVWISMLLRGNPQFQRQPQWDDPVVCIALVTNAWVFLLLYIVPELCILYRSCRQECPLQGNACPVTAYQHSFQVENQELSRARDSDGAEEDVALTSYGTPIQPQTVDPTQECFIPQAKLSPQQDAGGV
T1 sequence (Q8NFJ5 whole entry): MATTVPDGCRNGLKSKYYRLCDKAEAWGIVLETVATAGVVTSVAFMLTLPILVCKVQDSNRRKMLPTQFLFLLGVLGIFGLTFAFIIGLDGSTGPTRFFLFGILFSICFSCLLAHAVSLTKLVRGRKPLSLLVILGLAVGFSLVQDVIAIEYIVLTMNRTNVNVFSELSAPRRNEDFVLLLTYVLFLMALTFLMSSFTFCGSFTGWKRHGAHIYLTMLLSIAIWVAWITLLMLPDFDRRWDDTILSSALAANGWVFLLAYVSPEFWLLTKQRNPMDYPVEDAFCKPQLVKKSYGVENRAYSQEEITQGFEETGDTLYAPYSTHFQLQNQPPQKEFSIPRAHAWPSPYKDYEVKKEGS

B1: 10B10 IgG (antibody, V domains shown)
VH: EVQLVESGGGLVQPGRSMKLSCAASGFTFTNFYMAWVRQAPTKALEWVASINTGGGYTYYRDSVKGRFTVSRDNTRSTLYLQMDSLRSEETATYYCARHLTYYGRYYYFDYWGQGVMVTVSS
VL: DIQLTQSPHSLSASLGETVSIECLASEGISNYLAWFHQKPGKSPQLLIYYASSLQDGVPSRFSGSGSGTQYSLKISNMQPEDEGVYYCQQGYKYPLTFGSGTKLEIK
notes: also called rat IgG 10B10
- binding result [1]: no binding (tested: 30 µg/ml top concentration)
- binding result [2]: no binding (tested: 30 µg/ml top concentration)

B2: 5E11-TCB (bispecific antibody, human IgG1, kappa, L234A L235A)
light 1: DIVLTQSPALAVSPGQRATISCRASQSVSISGINLMNWYQQKPGQQPKLLIYHASILASGIPTRFSGSGSGTDFTLTIDPVQADDIATYYCQQTRESPLTFGSGTNLEIKRTVAAPSVFIFPPSDRKLKSGTASVVCLLNNFYPREAKVQWKVDNALQSGNSQESVTEQDSKDSTYSLSSTLTLSKADYEKHKVYACEVTHQGLSSPVTKSFNRGEC
light 2: EVQLLESGGGLVQPGGSLRLSCAASGFTFSTYAMNWVRQAPGKGLEWVSRIRSKYNNYATYYADSVKGRFTISRDDSKNTLYLQMNSLRAEDTAVYYCVRHGNFGNSYVSWFAYWGQGTLVTVSSASVAAPSVFIFPPSDEQLKSGTASVVCLLNNFYPREAKVQWKVDNALQSGNSQESVTEQDSKDSTYSLSSTLTLSKADYEKHKVYACEVTHQGLSSPVTKSFNRGEC
heavy 1: ELQLEQSGGGLVQPGGSLTLSCAASGFTFSKYAMAWVRQAPTKGLEWVASISTGGVNTYYRDSVKARFTISRDNAKNTQYLQMDSLRSEDTATYYCATHTGDYFDYWGQGVMVTVSSASTKGPSVFPLAPSSKSTSGGTAALGCLVEDYFPEPVTVSWNSGALTSGVHTFPAVLQSSGLYSLSSVVTVPSSSLGTQTYICNVNHKPSNTKVDEKVEPKSCDKTHTCPPCPAPEAAGGPSVFLFPPKPKDTLMISRTPEVTCVVVDVSHEDPEVKFNWYVDGVEVHNAKTKPREEQYNSTYRVVSVLTVLHQDWLNGKEYKCKVSNKALGAPIEKTISKAKGQPREPQVCTLPPSRDELTKNQVSLSCAVKGFYPSDIAVEWESNGQPENNYKTTPPVLDSDGSFFLVSKLTVDKSRWQQGNVFSCSVMHEALHNHYTQKSLSLSPGK
heavy 2: not shown
- EC50 of T cell cytotoxicity (LDH release) on AMO-1 cells [3]: 14 pM
- EC50 of T cell cytotoxicity (LDH release) on L363 cells [3]: 12 pM
- EC50 of T cell cytotoxicity (LDH release) on NCI-H929 cells [3]: 7 pM
- EC50 of T cell cytotoxicity (LDH release) on RPMI-8226 cells [3]: 24 pM
- EC50 of in vitro killing, AMO-1 cells [4]: 8 pM
- EC50 of in vitro killing, EJM cells [4]: 11 pM
- EC50 of in vitro killing, L363 cells [4]: 17 pM
- EC50 of in vitro killing, MOLP-2 cells [4]: 18 pM
- EC50 of in vitro killing, NCI-H929 cells [4]: 7 pM
- EC50 of in vitro killing, OPM-2 cells [4]: 2 pM
- EC50 of in vitro killing, RPMI cells [4]: 64 pM

B3: BCMA-TCB (bispecific antibody, human IgG1, kappa, L234A L235A)
heavy 1: EVQLLESGGGLVQPGGSLRLSCAASGFTFSSYAMNWVRQAPGKGLEWVSAITASGGSTYYADSVKGRFTISRDNSKNTLYLQMNSLRAEDTAVYYCARYWPMSLWGQGTLVTVSSASTKGPSVFPLAPSSKSTSGGTAALGCLVEDYFPEPVTVSWNSGALTSGVHTFPAVLQSSGLYSLSSVVTVPSSSLGTQTYICNVNHKPSNTKVDEKVEPKSCDKTHTCPPCPAPEAAGGPSVFLFPPKPKDTLMISRTPEVTCVVVDVSHEDPEVKFNWYVDGVEVHNAKTKPREEQYNSTYRVVSVLTVLHQDWLNGKEYKCKVSNKALGAPIEKTISKAKGQPREPQVCTLPPSRDELTKNQVSLSCAVKGFYPSDIAVEWESNGQPENNYKTTPPVLDSDGSFFLVSKLTVDKSRWQQGNVFSCSVMHEALHNHYTQKSLSLSPGK
light 1: EIVLTQSPGTLSLSPGERATLSCRASQSVSAYYLAWYQQKPGQAPRLLMYDASIRATGIPDRFSGSGSGTDFTLTISRLEPEDFAVYYCQQYERWPLTFGQGTKVEIKRTVAAPSVFIFPPSDRKLKSGTASVVCLLNNFYPREAKVQWKVDNALQSGNSQESVTEQDSKDSTYSLSSTLTLSKADYEKHKVYACEVTHQGLSSPVTKSFNRGEC
heavy 2: not shown
light 2: B2 light 2
- EC50 of in vitro killing, AMO-1 cells [5]: 518 pM
- EC50 of in vitro killing, EJM cells [5]: 132 pM
- EC50 of in vitro killing, L363 cells [5]: 127 pM
- EC50 of in vitro killing, MOLP-2 cells [5]: 32 pM
- EC50 of in vitro killing, NCI-H929 cells [5]: 311 pM
- EC50 of in vitro killing, OPM-2 cells [5]: 33 pM
- EC50 of in vitro killing, RPMI cells [5]: 11 pM

B4: 5F11-TCB (bispecific antibody, human IgG1, kappa, L234A L235A)
light 1: DIVMTQAPLSVSVTPGESASISCRSSKSLLHSNGITYVYWYFQKPGKSPQVLIYRMSNLASGVPDRFSGSGSETDFTLKISRVEAEDVGIYHCGQLLENPYTFGAGTELELKRTVAAPSVFIFPPSDRKLKSGTASVVCLLNNFYPREAKVQWKVDNALQSGNSQESVTEQDSKDSTYSLSSTLTLSKADYEKHKVYACEVTHQGLSSPVTKSFNRGEC
light 2: B2 light 2
heavy 1: EVQLVESGGGLVQPGRSLKLSCAASGFSFSNYGMAWVRQAATKGLEWVASISTGGGNTYYRDSVKGRFIVSRDNAKNTQYLQMDSLRSEDTATYYCTRHDRGGLYWGQGVMVTVSSASTKGPSVFPLAPSSKSTSGGTAALGCLVEDYFPEPVTVSWNSGALTSGVHTFPAVLQSSGLYSLSSVVTVPSSSLGTQTYICNVNHKPSNTKVDEKVEPKSCDKTHTCPPCPAPEAAGGPSVFLFPPKPKDTLMISRTPEVTCVVVDVSHEDPEVKFNWYVDGVEVHNAKTKPREEQYNSTYRVVSVLTVLHQDWLNGKEYKCKVSNKALGAPIEKTISKAKGQPREPQVCTLPPSRDELTKNQVSLSCAVKGFYPSDIAVEWESNGQPENNYKTTPPVLDSDGSFFLVSKLTVDKSRWQQGNVFSCSVMHEALHNHYTQKSLSLSPGK
heavy 2: not shown
- EC50 of T cell cytotoxicity (LDH release) on AMO-1 cells [3]: 3 pM
- EC50 of T cell cytotoxicity (LDH release) on L363 cells [3]: 1 pM
- EC50 of T cell cytotoxicity (LDH release) on NCI-H929 cells [3]: 1 pM
- EC50 of T cell cytotoxicity (LDH release) on RPMI-8226 cells [3]: 2 pM
- EC50 of in vitro killing, AMO-1 cells [4]: 6 pM
- EC50 of in vitro killing, EJM cells [4]: 3 pM
- EC50 of in vitro killing, L363 cells [4]: 3 pM
- EC50 of in vitro killing, MOLP-2 cells [4]: 1 pM
- EC50 of in vitro killing, NCI-H929 cells [4]: 4 pM
- EC50 of in vitro killing, OPM-2 cells [4]: 1 pM
- EC50 of in vitro killing, RPMI cells [4]: 6 pM

B5: 07A04 IgG (antibody, V domains shown)
VH: QVTLKESGPGILQPSHTLSLTCSFSGFSLSTYGMGVNWIRQPSGKGLEWLASIWWNGNTYNNPSLKSRLTVSKDTSNNQAFLKVTSVDTADTATYYCVHTRGIIRGRGLFFDYWGQGVMVTVSS
VL: DVQMTQSPYNLAASPGESVSINCKASKSISKYLAWYQQKPGKANKLLIYDGSTLQSGIPSRFSGSGSGTDFTLTIRSLEPEDFGLYYCQQHNEYPLTFGSGTKLEIKR
notes: also called rat IgG 07A04
- binding result [1]: no binding (tested: 30 µg/ml top concentration)
- binding result [2]: no binding (tested: 30 µg/ml top concentration)

B6: 5F11 IgG (antibody, V domains shown)
VH: EVQLVESGGGLVQPGRSLKLSCAASGFSFSNYGMAWVRQAATKGLEWVASISTGGGNTYYRDSVKGRFIVSRDNAKNTQYLQMDSLRSEDTATYYCTRHDRGGLYWGQGVMVTVSS
VL: DIVMTQAPLSVSVTPGESASISCRSSKSLLHSNGITYVYWYFQKPGKSPQVLIYRMSNLASGVPDRFSGSGSETDFTLKISRVEAEDVGIYHCGQLLENPYTFGAGTELELK
- binding result [1]: no binding (tested: 30 µg/ml top concentration)

B7: 5E11 IgG (antibody, V domains shown)
VH: ELQLEQSGGGLVQPGGSLTLSCAASGFTFSKYAMAWVRQAPTKGLEWVASISTGGVNTYYRDSVKARFTISRDNAKNTQYLQMDSLRSEDTATYYCATHTGDYFDYWGQGVMVTVSS
VL: DIVLTQSPALAVSPGQRATISCRASQSVSISGINLMNWYQQKPGQQPKLLIYHASILASGIPTRFSGSGSGTDFTLTIDPVQADDIATYYCQQTRESPLTFGSGTNLEIK
- binding result [1]: no binding (tested: 30 µg/ml top concentration)
